In US20120190612A1, “METHODS OF TREATMENT” (CRC FOR ASTHMA AND AIRWAYS LTD., priority 2009, published 2012):

Assays:
HMVEC-LLy cells [1] = assay: Migration towards a VEGF-D gradient (FluoroBlok transwell); assay type: cell-based, human; conditions: 24 hrs
Protocol: FluoroBlok BioCoat 24-well inserts (BD Bioscience) were seeded with 4×10^4 HMVEC-LLy cells in 750 μL DMEM with 0.1% BSA, 1% antibiotics and 25 mM HEPES and incubated for 1 hr. The bottom well was filled with 500 μL medium (as described above) with or without 10 ng/mL VEGF-D (R&D Systems) as well as various concentrations of lamstatin, tumstatin, CP17 or vehicle. Additionally, top wells were loaded with inhibitors to match the bottom well concentration. According to manufacturer's instructions cells were allowed to migrate for 24 hrs before bottom media was removed. Thereafter the underside of the transwell with the migrated cells was washed twice with HANKS buffer and placed in a 4 μg/mL calcein (HANKS) solution for 90 min at 37° C. Signal was read with a bottom read fluorescence microplate reader at 485/515 nm (excitation/emission).

HMVEC-LLy cells [2] = assay: Tube formation on Matrigel; assay type: cell-based, human; conditions: 24 hrs, n=2
Protocol: To assess formation of tubular structures, 48 well plates were coated with 130 μL Matrigel® (BD Bioscience), which was solidified at 37° C. over 45 min. 2×10^4 HMVEC-LLy cells in complete EBM-2 (500 μL) were seeded per well and allowed to attach for 30 min, before lamstatin, tumstatin, CP17 or vehicle was added to the wells. Photos were taken with a Kodak Digital Camera every 2 hrs. Tube formation peaked at 24 hrs, at which time tubular structures were further analysed to determine length (in pixels) and number of tubes per high power field (HPF) area (px^2). The HPF was divided in nine regions of equal size and tubes per region were counted. Mean and SEM were calculated and plotted.

integrins α5 and β1 = target: T1, integrins α5 and β1 (Homo sapiens, UniProt P05556+P08648); assay: Integrins mediating binding of lymphatic endothelial cells (data not shown); assay type: cell-based; conditions: HMVEC-LLy in vitro, different from HUVECs
T1 construct: endogenous in cells; host or cells: HMVEC-LLy (human primary lymphatic endothelial cells)

[3] = test system: lung adenocarcinoma cells (LNM35 AAV-GFP); assay: Mouse ear tumour plug model of tumour-induced lymphangiogenesis; assay type: in vivo; conditions: lamstatin 10 or 100 μg/mL; CP17 5 or 50 μA; vs vehicle
Protocol: A mouse ear tumour plug model was utilized in which green fluorescent protein (GFP)-tagged lung adenocarcinoma cells (LNM35 AAV-GFP) were injected between the two layers of skin of the ears of NOD/SCID mice. 1×10^6 tumour cells were embedded in […] growth factor free Matrigel® medium enriched with vehicle (1 nM EDTA, pH3.0) or lamstatin at either 10 μg/mL or 100 μg/mL. Mice were divided into three groups.
Group 1 (n=9): One ear of each mouse injected with tumour cells+10 μg/mL lamstatin; the other ear injected with tumour cells+vehicle control. Group 2 (n=9): One ear of each mouse injected with tumour cells+100 μg/mL lamstatin; the other ear injected with tumour cells+vehicle control. Group 3 (n=3): Each ear injected with Matrigel® only.
Injections were single shots such that at least 25 μL was injected. 12 days after injection were sacrificed by anesthetisation and cervical dislocation. Ears were removed for whole mount staining. Flaps of skin from each ear were carefully separated, fixed and stained for either the lymphatic endothelial cell specific marker LyVe-1 (rabbit polyclonal anti-LyVe-1 antibody detected using anti-rabbit Alexafluor 647) or the vascular endothelial cell specific marker PECAM (CD31 rat anti-mouse antibody clone MEC13.3 (Pharmingen), detected with […]). Tumour cells were visualised by detection of GFP expression. Images of representative regions of ears were obtained using a confocal microscope and LyVe-1 or PECAM staining was quantified.
Using the LyVe-1 whole mount stained mouse ear sections, the inventors further investigated the morphology of lymphatic vessel formation. Specifically confocal images were loaded into Image J software (www.sbweb.nih.gov/ij/), a 5×5 grid overlayed and vessels examined for branching and looping. The functionality of a lymphatic network is based on its maturity and in general it is accepted that a tumour induces a rather immature network formation. Reconnecting vessels (measured as loops) and increased branching (measured as branches) are signs of immature vessels induced by, for example, a tumour (see for example Shayan et al. Growth Factors 25, 417-425, 2007).
Branches were defined as two clearly distinguishable vessels that separate out without rejoining. Loops were defined as small, circular vessel structures in the same focal plane. Branches or loops were counted separately per image and mean values were calculated for each treatment group.

integrin β3 = target: T2, integrin β3 (Homo sapiens, UniProt P05106); assay: Integrin binding of HMVEC-LLy cells on antibody-coated plates; assay type: cell-based; conditions: lamstatin 10 μg/ml, CP17 5 μM, 1 h
T2 construct: endogenous in cells; host or cells: HMVEC-LLy (human primary lymphatic endothelial cells)
T2 sequence (P05106 27-788): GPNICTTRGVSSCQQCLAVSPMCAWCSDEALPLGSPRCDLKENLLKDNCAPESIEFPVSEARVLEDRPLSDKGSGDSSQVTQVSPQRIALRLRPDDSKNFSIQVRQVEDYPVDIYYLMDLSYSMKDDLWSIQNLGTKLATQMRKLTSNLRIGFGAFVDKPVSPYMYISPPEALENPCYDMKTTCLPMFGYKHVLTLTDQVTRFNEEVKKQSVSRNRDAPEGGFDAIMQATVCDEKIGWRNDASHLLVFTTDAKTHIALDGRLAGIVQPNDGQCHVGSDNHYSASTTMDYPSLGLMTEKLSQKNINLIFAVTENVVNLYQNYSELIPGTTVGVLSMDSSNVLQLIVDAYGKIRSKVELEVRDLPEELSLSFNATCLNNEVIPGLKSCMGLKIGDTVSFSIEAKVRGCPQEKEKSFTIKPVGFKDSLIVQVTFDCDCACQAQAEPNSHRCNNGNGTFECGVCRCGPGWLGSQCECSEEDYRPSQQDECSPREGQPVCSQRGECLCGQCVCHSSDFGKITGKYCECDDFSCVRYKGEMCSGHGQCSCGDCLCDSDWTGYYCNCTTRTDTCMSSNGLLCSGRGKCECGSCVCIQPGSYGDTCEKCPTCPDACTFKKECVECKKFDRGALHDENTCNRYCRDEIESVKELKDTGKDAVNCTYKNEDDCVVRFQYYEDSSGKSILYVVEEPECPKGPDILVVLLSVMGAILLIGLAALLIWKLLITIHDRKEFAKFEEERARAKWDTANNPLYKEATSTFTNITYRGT
T2 sequence (P06756 31-889 limits assumed, further chain): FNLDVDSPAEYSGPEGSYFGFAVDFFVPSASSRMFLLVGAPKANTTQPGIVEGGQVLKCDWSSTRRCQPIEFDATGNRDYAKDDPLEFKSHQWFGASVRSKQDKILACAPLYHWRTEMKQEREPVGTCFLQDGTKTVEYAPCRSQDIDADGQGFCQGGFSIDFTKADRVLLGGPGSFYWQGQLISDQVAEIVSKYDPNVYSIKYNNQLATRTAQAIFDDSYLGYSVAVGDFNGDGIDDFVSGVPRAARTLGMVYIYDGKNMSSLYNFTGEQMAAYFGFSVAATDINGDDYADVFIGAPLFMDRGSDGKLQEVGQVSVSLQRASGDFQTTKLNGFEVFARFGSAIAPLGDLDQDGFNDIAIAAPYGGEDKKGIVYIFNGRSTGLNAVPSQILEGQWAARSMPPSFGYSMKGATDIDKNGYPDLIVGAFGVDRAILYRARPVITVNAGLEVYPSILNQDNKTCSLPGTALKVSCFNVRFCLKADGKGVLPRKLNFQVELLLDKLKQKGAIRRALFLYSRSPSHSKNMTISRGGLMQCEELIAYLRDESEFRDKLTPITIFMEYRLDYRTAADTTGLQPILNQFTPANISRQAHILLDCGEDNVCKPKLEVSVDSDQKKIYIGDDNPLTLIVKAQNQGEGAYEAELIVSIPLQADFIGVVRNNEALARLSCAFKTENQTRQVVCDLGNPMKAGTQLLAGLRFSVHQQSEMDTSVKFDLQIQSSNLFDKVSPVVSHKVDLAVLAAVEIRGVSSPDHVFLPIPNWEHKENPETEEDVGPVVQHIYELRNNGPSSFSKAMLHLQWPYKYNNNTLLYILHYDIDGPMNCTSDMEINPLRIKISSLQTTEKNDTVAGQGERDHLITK
T2 sequence (P06756 891-1048 limits assumed, further chain): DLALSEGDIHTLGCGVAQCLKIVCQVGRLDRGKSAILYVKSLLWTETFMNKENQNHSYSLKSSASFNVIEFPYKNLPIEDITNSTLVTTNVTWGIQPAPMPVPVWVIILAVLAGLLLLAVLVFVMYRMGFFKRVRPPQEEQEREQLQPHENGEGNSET
Protocol: (§1) Antibodies for integrin α5 (MAB1956Z; MAB1953Z), integrin β1 (MAB2253Z) and integrin β3 (MAB1957Z) (all Millipore, USA) were coated to 96 well tissue culture plates (Nunc, USA) at a concentration of 10 μg/mL overnight at 4° C. in sterile coating buffer (50 mM Na2CO3, 50 mM NaHCO3, pH 9.6). Plates then were blocked with sterile 1% BSA/PBS for 1 h at 37° C. and washed twice with EBM-2 MV (Lonza, Basel, Switzerland). MMVEC-LLy cells were carefully removed from culture flasks with non-enzymatic detachment solution (Trevigen, Md., USA) and washed twice with EBM-2 (Lonza, Basel, Switzerland). Volume was adjusted to a cell concentration of 50,000 cells/100 μL and divided into aliquots for treatment with recombinant lamstatin (10 μg/ml), CP17 (5 μM) or vehicle (1 nM EDTA, pH 3.5) only. Cells were then transferred to the antibody-coated plates and incubated for 1 h at 37° C. Wells were then washed with HANKS twice to remove unbound cells and fixed with 4% paraformaldehyde (in PBS) for 15 min at room temperature. Wells thereafter were photographed with an Olypmus CAMEDIA C-4000 camera mounted to an Olympus CK2 microscope. Pictures were divided into 25 segments and cells of 5 center-near quadrants were counted and averaged. […] Using a similar approach, the inventors observed no expression of integrin α4 on the surface of HMVEC-LLy cells (data not shown).

integrin β1 = target: T3, integrin β1 (Homo sapiens, UniProt P05556+P08648); assay: as above; assay type: cell-based; conditions: lamstatin 10 μg/ml, CP17 5 μM, 1 h
T3 construct: endogenous in cells; host or cells: HMVEC-LLy (human primary lymphatic endothelial cells)
T3 sequence (P05556 21-798): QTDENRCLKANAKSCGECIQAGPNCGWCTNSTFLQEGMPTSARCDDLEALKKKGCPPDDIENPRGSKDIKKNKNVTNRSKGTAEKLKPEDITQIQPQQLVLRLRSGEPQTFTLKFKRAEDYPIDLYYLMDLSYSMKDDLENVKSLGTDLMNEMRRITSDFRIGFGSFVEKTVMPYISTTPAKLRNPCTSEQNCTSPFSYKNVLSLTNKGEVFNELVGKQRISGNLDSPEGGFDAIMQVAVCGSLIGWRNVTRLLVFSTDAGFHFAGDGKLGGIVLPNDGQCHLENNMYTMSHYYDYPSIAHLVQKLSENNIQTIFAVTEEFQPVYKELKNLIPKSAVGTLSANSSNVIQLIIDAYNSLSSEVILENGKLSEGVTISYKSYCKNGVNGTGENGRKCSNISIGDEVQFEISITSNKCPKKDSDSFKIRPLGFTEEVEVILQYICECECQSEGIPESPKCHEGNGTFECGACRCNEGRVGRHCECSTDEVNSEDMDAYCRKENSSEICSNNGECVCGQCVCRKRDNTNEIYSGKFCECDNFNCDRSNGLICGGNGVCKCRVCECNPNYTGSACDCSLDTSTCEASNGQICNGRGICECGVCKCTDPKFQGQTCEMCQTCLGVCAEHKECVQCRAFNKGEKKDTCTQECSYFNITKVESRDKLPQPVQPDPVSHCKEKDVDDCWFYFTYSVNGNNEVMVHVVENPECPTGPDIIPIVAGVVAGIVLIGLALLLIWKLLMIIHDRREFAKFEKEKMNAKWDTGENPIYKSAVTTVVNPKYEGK
T3 sequence (P08648 42-894 limits assumed): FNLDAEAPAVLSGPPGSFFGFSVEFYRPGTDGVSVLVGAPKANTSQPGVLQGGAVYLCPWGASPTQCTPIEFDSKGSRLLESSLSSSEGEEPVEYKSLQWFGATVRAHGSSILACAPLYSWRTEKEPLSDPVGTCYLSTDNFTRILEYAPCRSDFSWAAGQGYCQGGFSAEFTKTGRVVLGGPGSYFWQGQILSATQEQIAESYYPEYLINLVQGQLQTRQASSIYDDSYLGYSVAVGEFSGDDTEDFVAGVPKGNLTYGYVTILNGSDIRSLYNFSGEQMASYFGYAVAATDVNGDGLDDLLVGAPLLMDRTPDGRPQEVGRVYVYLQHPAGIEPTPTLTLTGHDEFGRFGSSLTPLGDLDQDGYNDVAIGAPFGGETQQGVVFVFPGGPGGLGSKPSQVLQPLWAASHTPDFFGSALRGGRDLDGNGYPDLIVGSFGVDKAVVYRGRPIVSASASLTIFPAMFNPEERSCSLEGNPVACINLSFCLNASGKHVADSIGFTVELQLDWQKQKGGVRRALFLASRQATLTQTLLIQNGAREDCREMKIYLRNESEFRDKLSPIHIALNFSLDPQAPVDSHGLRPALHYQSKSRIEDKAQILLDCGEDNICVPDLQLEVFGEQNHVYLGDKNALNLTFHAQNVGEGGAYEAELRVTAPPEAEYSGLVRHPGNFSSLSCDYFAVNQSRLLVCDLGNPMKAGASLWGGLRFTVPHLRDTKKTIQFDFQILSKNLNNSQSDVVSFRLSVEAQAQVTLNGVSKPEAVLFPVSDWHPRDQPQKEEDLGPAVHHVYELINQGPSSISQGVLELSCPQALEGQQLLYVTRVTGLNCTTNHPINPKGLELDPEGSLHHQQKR
T3 sequence (P08648 895-1049 limits assumed): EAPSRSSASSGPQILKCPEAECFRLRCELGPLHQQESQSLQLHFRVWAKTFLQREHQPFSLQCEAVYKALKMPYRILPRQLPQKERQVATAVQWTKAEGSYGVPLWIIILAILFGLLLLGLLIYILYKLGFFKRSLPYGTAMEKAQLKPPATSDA
Protocol: as §1

integrin α5 = target: T4, integrin α5 (Homo sapiens, UniProt P05556+P08648); assay: as above; assay type: cell-based; conditions: lamstatin 10 μg/ml, CP17 5 μM, 1 h
T4 construct: endogenous in cells; host or cells: HMVEC-LLy (human primary lymphatic endothelial cells)
T4 sequence (P08648 42-894 limits assumed): as the sequence (P08648 42-894 limits assumed) above
T4 sequence (P08648 895-1049 limits assumed): as the sequence (P08648 895-1049 limits assumed) above
T4 sequence (P05556 21-798): as the sequence (P05556 21-798) above
Protocol: as §1

VEGF-D (R&D Systems) = VEGF-D (R&D Systems) (UniProt O43915); assay: cell-based or functional assay
LAM nodule cells = assay: MTT cell viability assay, LAM nodule cells; assay type: cell-based; conditions: intermediate layer, centre and outer nodule cells, 72 hrs
Protocol: (§2) To determine the function of lamstatin, human primary lymphatic endothelial cells (HMVEC-LLy cells) were exposed to various concentrations of lamstatin and an MTT assay was performed. As a comparison, commercially available tumstatin was used. Specifically, to assess cell viability 4×10^3 HMVEC-LLy cells were seeded per well in 100 μl complete EBM-2 media (with bullet kit, Lonza) and incubated for 2 hrs at 37° C., 5% CO2. After this period lamstatin, tumstatin and respective vehicles (1 nM EDTA, pH 3.0) were prepared in complete EBM-2 as serial dilutions in a separate plate and added. Cells were grown for 24 hrs before MTT (1 mg/mL in PBS) was added. After 6 h of further incubation cells were lysed overnight with 10% SDS/0.01 M HCl and measured the following day in a plate reader at 570 nm.
The inventors isolated lung cells from a LAM patient, which cells originated from the LAM nodules. These cells were termed according to their location within the nodule, as intermediate layer in the nodule, centre cells and outer nodule cells. These cells were then treated with lamstatin or tumstatin and cell viability measured after 72 hrs. The MTT viability assay was performed as described above in Example 1.

[4] = test system: human primary lymphatic endothelial cells (HMVEC-LLy cells); assay: MTT cell viability assay, lymphatic endothelial cells; assay type: cell-based; conditions: 24 hrs, data not shown
Protocol: as §2, with “Cells were grown for 24 hrs before MTT (1 mg/mL in PBS) was added.” left out
The MTT assay was performed as described above.

For “VCNFASRNDYSYWLSTP (listed as Homo sapiens) [CP17]”, the “migration towards a VEGFD gradient” value (HMVEC-LLy cells [1]; n=1, VEGFD alone 42.000 RFU) was “the same effect was not observed”, the “numbers of tube-like structures formed” value (HMVEC-LLy cells [2]) was “reduce in a concentration related manner” and the “predominant integrins that mediate the binding of lymphatic endothelial cells” value (integrins α5 and β1) was “integrins α5 and β1”. The “number of branches of lymphatic vessels” value [3] was “significantly reduced”, the “number of loops of lymphatic vessels” value [3] was “significantly reduced” and the “cell binding in presence of monoclonal antibody against integrin β3” value (integrin β3) was “no effect on binding”. For the same molecule, the “cell binding in presence of monoclonal antibody against integrin β1” value (integrin β1) was “significantly inhibited cell binding” and the “cell binding in presence of monoclonal antibody against integrin α5” value (integrin α5) was “significantly inhibited cell binding”.

For “VEGFD specific blocking fusion receptor (R3-FC) (Fc fusion)”, the migration of HMVEC-LLy towards a VEGFD gradient after 24 hrs (RFU) (VEGF-D (R&D Systems)) was under 15000 RFU.

B1: tumstatin: NC1 domain of the α3 chain of collagen type IV; human sequence SEQ ID NO:3; commercially available tumstatin was used (protein, listed as Homo sapiens)
chain: GFVFTRHSQTTAIPSCPEGTVPLYSGFSFLFVQGNQRAHGQDLGTLGSCLQRFTTMPFLFCNVNDVCNFASRNDYSYWLSTPALMPMNMAPITGRALEPYISRCTVCEGPAIAIAVHSQTTDIPPCPHGWISLWKGFSFIMFTSAGSEGTGQALASPGSCLEEFRASPFLECHGRGTCNYYSNSYSFWLASLNPERMFRKPIPSTVKAGELEKIISRCQVCMKKRH
For B1, the “reduction of cell viability (MTT)” value (LAM nodule cells) was “effective in reducing cell viability at higher concentrations”, the “cell viability (MTT)” value [4] was “lamstatin only” and the “numbers of tube-like structures formed” value (HMVEC-LLy cells [2]) was “reduce in a concentration related manner”. For the same molecule, the “predominant integrins that mediate the binding of lymphatic endothelial cells” value (integrins α5 and β1) was “integrins α5 and β1”.

B2: VEGFD: growth factor (R&D Systems) used as chemoattractant gradient for lymphatic endothelial cells (protein)
chain: FYDIETLKVIDEEWQRTQCSPRETCVEVASELGKSTNTFFKPPCVNVFRCGGCCNEESLICMNTSTSYISKQLFEISVPLTSVPELVPVKVANHTGCKCLPTAPRHPYS
With B2 the “migration of lymphatic endothelial cells towards VEGFD” value (HMVEC-LLy cells [1]; increasing concentrations of VEGFD) was “attract lymphatic endothelial cells in a concentration related manner”.
